# In paper PMC6326841:
# Experiments:
# [1] = target: pyrene-labeled rabbit skeletal muscle F-actin (rabbit) (UniProt P68135); assay: stopped-flow fluorescence
# [2] = target: pyrene-labeled rabbit skeletal muscle F-actin (rabbit) (UniProt P68135); assay: other fluorescence titration
# [3] = target: RLC-depleted porcine cardiac myosin (pig (endogenous in porcine ventricular muscle)) (UniProt P79293); assay: reconstitution of RLC-depleted myosin, SDS-PAGE densitometry
# [4] = target: RLC-depleted porcine cardiac myosin (pig (endogenous in porcine ventricular muscle)) (UniProt P79293); assay: reconstitution of RLC-depleted skinned muscle strips, SDS-PAGE densitometry
kobs of actin-myosin dissociation at 10 μM MgATP [1] [s⁻¹],kobs of actin-myosin dissociation at 25 μM MgATP [1] [s⁻¹],kobs of actin-myosin dissociation at 40 μM MgATP [1] [s⁻¹],kobs of actin-myosin dissociation at 80 μM MgATP [1] [s⁻¹],kobs of actin-myosin dissociation at 150 μM MgATP [1] [s⁻¹],kobs of actin-myosin dissociation at 250 μM MgATP [1] [s⁻¹],Kd [2] [nM],% RLC Present [3] [%],% RLC Present [4] [%],Molecule
7.26,15.1,23.6,45.6,69.2,107,13.3,,,porcine cardiac myosin reconstituted with human cardiac R58Q RLC (from UniProt P79293 1-1935; P10916 1-166) (complex)
7.29,14.7,25.3,41.5,74,111,3.53,,,porcine cardiac myosin reconstituted with human cardiac S15D-R58Q RLC (from UniProt P79293 1-1935; P10916 1-166) (complex)
8.25,15.7,27.3,48.9,82.2,107,2.13,,,porcine cardiac myosin reconstituted with human cardiac WT RLC (from UniProt P79293 1-1935; P10916 1-166) (complex)
,,,,,,,87.2,61.3,"human ventricular (cardiac) myosin regulatory light chain, wild type (natural protein) MAPKKAKKRAGGANSNVFSMFEQTQIQEFKEAFTIMDQNRDGFIDKNDLRDTFAALGRVNVKNEEIDEMIKEAPGPINFTVFLTMFGEKLKGADPEETILNAFKVFDPEGKGVLKADYVREMLTTQAERFSKEEVDQMFAAFPPDVTGNLDYKNLVHIITHGEEKD"
,,,,,,,75.7,54,human ventricular myosin regulatory light chain R58Q mutant (natural protein) MAPKKAKKRAGGANSNVFSMFEQTQIQEFKEAFTIMDQNRDGFIDKNDLRDTFAALGQVNVKNEEIDEMIKEAPGPINFTVFLTMFGEKLKGADPEETILNAFKVFDPEGKGVLKADYVREMLTTQAERFSKEEVDQMFAAFPPDVTGNLDYKNLVHIITHGEEKD
,,,,,,,86.9,64.5,human ventricular myosin regulatory light chain S15D-R58Q phosphomimic double mutant (natural protein) MAPKKAKKRAGGANDNVFSMFEQTQIQEFKEAFTIMDQNRDGFIDKNDLRDTFAALGQVNVKNEEIDEMIKEAPGPINFTVFLTMFGEKLKGADPEETILNAFKVFDPEGKGVLKADYVREMLTTQAERFSKEEVDQMFAAFPPDVTGNLDYKNLVHIITHGEEKD
